Columns and labels:
[1] = biological target: Murine APRIL (K104-L241) thioredoxin fusion protein (murine) (UniProt Q9D777); experiment: competitive displacement ELISA on immobilized APRIL; unlabeled baculovirus BCMA varied, tracer biotinylated baculovirus BCMA
[2] = biological target: Murine APRIL (K104-L241) thioredoxin fusion protein (murine) (UniProt Q9D777); experiment: competitive displacement ELISA on immobilized APRIL; unlabeled baculovirus BCMA varied, tracer biotinylated BCMA-Z
[3] = biological target: Murine APRIL (K104-L241) thioredoxin fusion protein (murine) (UniProt Q9D777); experiment: SPR (BIAcore 3000), APRIL immobilized, 1:1 model
[4] = biological target: Murine APRIL (K104-L241) thioredoxin fusion protein (murine) (UniProt Q9D777); experiment: competitive displacement ELISA on immobilized APRIL; unbiotinylated BCMA-Fc varied, tracer biotinylated BCMA-Z
[5] = biological target: Murine APRIL (K104-L241) thioredoxin fusion protein (murine) (UniProt Q9D777); experiment: competition ELISA; immobilized APRIL, tracer biotinylated BCMA-Z
[6] = biological target: Murine APRIL (K104-L241) thioredoxin fusion protein (murine) (UniProt Q9D777); experiment: competitive displacement ELISA; immobilized APRIL, tracer biotinylated BCMA-Z

BCMA-Fc, sequence (Q02223 5-51): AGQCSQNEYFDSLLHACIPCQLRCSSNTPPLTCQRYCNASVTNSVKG
BCMA ECD purified from baculovirus expression, sequence (Q02223 4-53): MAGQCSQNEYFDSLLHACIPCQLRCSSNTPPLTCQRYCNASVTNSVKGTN

Substance: BCMA ECD purified from baculovirus expression (from UniProt Q02223 4-53) (receptor)
- IC50 (read off the curve) [1]: 20 nM
- IC50 (read off the curve) [2]: 10 nM

Substance: BCMA-Fc (from UniProt Q02223 5-51) (Fc fusion)
- Kd [3]: 0.2 nM
- kon [3]: 3.12e+06 M⁻¹ s⁻¹
- IC50 (read off the curve) [4]: 7 nM
- IC50 [5]: 7 to 10 nM
- IC50 [6]: 5 nM
